One substance from article PMC10912764 can be followed below.

In test [1] the target is amyloid-β peptide Aβ (1–42) (UniProt P05067).
For test [2] the target is unchanged. This is another data set of the same source.

Sequence of E. coli CsgA protein with a C-terminal 6× His tag (P28307 21-151): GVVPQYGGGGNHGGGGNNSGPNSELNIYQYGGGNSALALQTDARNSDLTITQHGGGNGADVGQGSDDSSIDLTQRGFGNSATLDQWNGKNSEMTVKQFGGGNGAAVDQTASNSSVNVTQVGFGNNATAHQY

With “E. coli CsgA protein with a C-terminal 6× His tag (from UniProt P28307 21-151) (natural protein)”, in test [1], the inhibition of Aβ aggregation (ThT fluorescence; 75 µM Aβ with 10 µM CsgA), as given in the legend is 47%. Also, in test [2], the inhibition of Aβ aggregation (ThT fluorescence; 75 µM Aβ with 10 µM CsgA, excess Aβ 7.5:1) came out at 43% and the lag phase of Aβ aggregation (ThT) with CsgA; approximately 150 h without CsgA came to 175 h.
